In patent US8623997B2, “Variant Hhip1 protein and methods and uses thereof” (Curis, Inc., priority 2008, dated 2014):
Bridge positions count the residues as written; N and C are the ends. Ends that are not written are not given here.

What was measured:
[1] = biological target: T1, Shh-Flag (Homo sapiens, UniProt Q15465); test: Peptide competition ELISA for Hhip binding to Shh-Flag
T1 construct: Shh-Flag (residues 25-197 with C-terminal Flag-Tag); His6 (N); made in house; host or cells: Shh-Flag: E. coli Rosetta 2; Hhip: Tni insect cells
T1 sequence (Q15465 25-197): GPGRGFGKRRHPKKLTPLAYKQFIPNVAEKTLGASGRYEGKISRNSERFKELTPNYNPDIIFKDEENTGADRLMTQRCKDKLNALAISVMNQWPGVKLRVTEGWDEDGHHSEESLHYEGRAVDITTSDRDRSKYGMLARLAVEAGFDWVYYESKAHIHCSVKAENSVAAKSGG
Method: In a competition assay, a peptide derived from the Hhip1β12 L2 loop competed with Hipβ1 for Shh binding. Briefly, 96-well Nunc-Immuno MaxiSorp plates (Nalge Nunc International) were coated with 100 μl of anti-Flag M2 antibody (Sigma) at 5 μg/ml in 50 mM sodium carbonate buffer pH 9.6 at 4° C. overnight. Plates were blocked and washed as described for Shh competition ELISA followed by incubation with 100 μL of Shh-Flag at 50 μg/ml for 1 h. After plate washing a serial dilution of Hip-L2 peptide ([…]) (SEQ ID NO:46) starting at 1.2 mM (1:3 dilution) containing 800 nM Hhip1β12 in a final volume of 100 μL was added to the wells to compete for binding to Shh-Flag. After incubation for 1 hr, wells were washed and incubated with anti-His-HRP conjugate (Qiagen, 1:2000 dilution) in blocking buffer. Plate was developed and the data were fit to a 4-parameter equation and the IC50 calculated as described above; assays were carried out in triplicate.

[2] = biological target: T2, Shh (Homo sapiens, UniProt Q15465); test: NMR HSQC spectroscopy of labeled Shh with L2 loop peptides; format: binding; conditions: peptide 2 mM, 90 μM ^15N-Shh
T2 construct: yielding Shh (residues 29-197) lacking the His6-Tag; His6 (N, cleaved yes); made in house; host or cells: E. coli Rosetta 2, minimal/M9 medium with 15NH4Cl
T2 sequence (Q15465 29-197): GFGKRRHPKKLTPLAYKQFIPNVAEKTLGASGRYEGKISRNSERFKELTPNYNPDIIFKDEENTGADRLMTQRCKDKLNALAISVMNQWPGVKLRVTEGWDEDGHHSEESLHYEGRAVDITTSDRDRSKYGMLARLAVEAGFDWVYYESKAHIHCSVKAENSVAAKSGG
Description: Shh is in the same orientation as in the Hhip-Shh complex in Panel A. Zn^2+ and Ca^2+ cations are shown. […] Surface representation of Shh with residues within 4.5 Å of Hhip (shaded gray) and Cdon (hatched areas). Area within dotted boarder indicates the boundaries of the Cdon footprint, which overlaps the Hhip binding surface. […] Shh histidine residues are shown as sticks with nitrogen atoms shaded dark. The Hhip L2 loop is shown in transparent surface and Zn^2+ cation is shown. Histidine 35 is not shown since the ordered portion of the Shh structure begins at L40. […] The spectral region of the histidine side chains is shown. […] The average mean Shh649 fluorescence intensity (MFI) of two independent dilution series was plotted versus protein concentration, with error bars denoting standard deviations. Ctrl refers to the His-6 (SEQ ID NO: 87) tagged HGF β protein. […] Shh649 (0.33 nM) was preincubated with 56 nM (170-fold excess) of Hhipβ12 wildtype or L2 mutant proteins, 5E1 or controls then bound to Ptch1 cells (black) or 293 cells (gray), washed and analyzed by FACS. Shh649 binding to Ptch1 cells in the absence of inhibitors was normalized to 100% and the data expressed as a percentage of this signal (average of two independent duplicates with standard deviations). Ctrl and CtrlFc refer to HGF β and the IgG1 isotype control Trastuzumab, respectively. […]

For “GCQLTKQRLVDADGIINPCG (disulfide 2-19 (inferred); listed as Homo sapiens) [Ptch L2 peptide]”, the “competition with Hipβ1 for Shh binding (in words)” value [1] was “unable to compete with Hipβ1 for Shh binding” and the “binding to Shh by ^15N, ^1H HSQC (in words)” value [2] was “binds Shh in a manner similar to that of the Hhip1β12 L2 peptide”.
